According to PMC10754036 (Nature structural & molecular biology, 2018):

Target: PSD95, His tagged recombinant (UniProt P78352 1-724)
Experiment: BLI

Sequence of PSD95, His tagged recombinant (P78352 whole entry): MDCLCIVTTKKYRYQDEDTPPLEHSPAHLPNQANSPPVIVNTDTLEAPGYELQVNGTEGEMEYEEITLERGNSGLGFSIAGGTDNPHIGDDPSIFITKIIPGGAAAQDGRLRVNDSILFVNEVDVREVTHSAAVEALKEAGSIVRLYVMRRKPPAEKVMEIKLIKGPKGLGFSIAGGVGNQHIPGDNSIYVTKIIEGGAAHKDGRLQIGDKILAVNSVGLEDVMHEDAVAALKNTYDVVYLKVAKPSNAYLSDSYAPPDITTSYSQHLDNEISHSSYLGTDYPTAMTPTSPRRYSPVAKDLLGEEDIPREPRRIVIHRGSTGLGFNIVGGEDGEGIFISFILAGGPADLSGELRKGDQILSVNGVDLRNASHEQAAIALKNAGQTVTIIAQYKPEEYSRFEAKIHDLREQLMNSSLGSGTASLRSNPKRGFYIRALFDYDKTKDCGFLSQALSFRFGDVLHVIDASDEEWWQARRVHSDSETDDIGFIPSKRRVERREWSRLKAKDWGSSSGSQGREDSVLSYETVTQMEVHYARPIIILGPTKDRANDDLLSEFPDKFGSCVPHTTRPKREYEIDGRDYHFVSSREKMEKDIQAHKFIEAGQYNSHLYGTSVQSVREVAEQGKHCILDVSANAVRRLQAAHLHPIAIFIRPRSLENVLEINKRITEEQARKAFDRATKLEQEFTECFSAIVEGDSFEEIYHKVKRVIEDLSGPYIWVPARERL

B1: NS1 of A/Brevig Mission/1/1918 (H1N1) influenza A virus, His tagged recombinant (natural protein)
chain: MDSNTVSSFQVDCFLWHVRKRFADQELGDAPFLDRLRRDQKSLRGRGSTLGLDIETATRAGKQIVERILKEESDEALKMTIASVPASRYLTDMTLEEMSRDWFMLMPKQKVAGSLCIRMDQAIMDKNIILKANFSVIFDRLETLILLRAFTEEGAIVGEISPLPSLPGHTDEDVKNAVGVLIGGLEWNDNTVRVSETLQRFAWRSSNENGRPPLPPKQKRKMARTIKSEV
Kd: 1600 nM
